Results from the supplement of paper PMC10724198.
± gives the standard deviation of the averaged measurements.

Experiments:
[1] = system: Saccharomyces cerevisiae; test: protein stability index of tFT-peptide fusion (C-terminal peptide) (PSI (0-1 scale)); higher = more stable (slower turnover)
Protocol: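 MPS profiling in S. cerevisiae of the tFT-X12 degron library: putative degron peptides plus stable controls, 12 aa, fused to the C-terminus of a sfGFP-mCherry timer. Cells are FACS-sorted into 8 mCherry/sfGFP bins and deep-sequenced. PSI runs from 0 (unstable) to 1 (stable). Backgrounds are wild type, das1Δ and doa10Δ at 30 °C, and wild type, das1Δ, cdc34-1 and cdc53-1 at 37 °C; 2-3 technical replicates each.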

[2] = system: Saccharomyces cerevisiae; test: as above; details: genetic background: wild type; temperature: 30 C
[3] = genetic background: cdc34-1, temperature: 37 C
[4] = genetic background: cdc53-1, temperature: 37 C
[5] = genetic background: das1 deletion, temperature: 30 C
[6] = genetic background: das1 deletion, temperature: 37 C
[7] = genetic background: doa10 deletion, temperature: 30 C
[8] = genetic background: wild type, temperature: 30 C
[9] = genetic background: wild type, temperature: 37 C
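Also: PSI is a weighted mean of sequencing reads over stability bins, variants kept only with over 10 reads, mCherry proximal and sfGFP distal, peptide attached via GGGS linker.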

Sequence	protein stability index [1, 3]	protein stability index [1, 4]	protein stability index [1, 5]	protein stability index [1, 6]	protein stability index [1, 7]	protein stability index [1, 8]	protein stability index [1, 9]	protein stability index [2]
FIVVSFCFFLFF	0.331 ± 0.06	0.382 ± 0.0069	0.301 ± 0.023	0.4351 ± 0.0036	0.31 ± 0.03	0.263 ± 0.045	0.414 ± 0.013	0.343 ± 0.067
FKFGVFDFRFLC	0.451 ± 0.063	0.686 ± 0.031	0.623 ± 0.011	0.7617 ± 0.0049	0.0716 ± 0.0051	0.0879 ± 0.036	0.115 ± 0.031	0.109 ± 0.06
FLFFLFVVFVFV	0.256 ± 0.041	0.35 ± 0.046	0.305 ± 0.022	0.379 ± 0.0046	0.323 ± 0.015	0.286 ± 0.013	0.3692 ± 0.0023	0.41 ± 0.07
FLFFRFLVGCCF	0.406 ± 0.0083	0.396 ± 0.0095	0.339 ± 0.032	0.4545 ± 0.0039	0.29943 ± 0.00022	0.311 ± 0.0085	0.427 ± 0.017	0.3731 ± 0.003
FLIFFVCLFRWK	0.185 ± 0.0059	0.243 ± 0.0062	0.231 ± 0.023	0.3191 ± 0.0023	0.21 ± 0.025	0.235 ± 0.029	0.301 ± 0.0041	0.328 ± 0.0066
FLLLDFMLVSLV	0.498 ± 0.015	0.5175 ± 0.0029	0.404 ± 0.022	0.543 ± 0.011	0.371 ± 0.029	0.412 ± 0.036	0.521 ± 0.037	0.483 ± 0.011
FLLLVVYVSLYS	0.143 ± 0.0068	0.207 ± 0.039	0.183 ± 0.033	0.2973 ± 0.00095	0.133 ± 0.0063	0.156 ± 0.032	0.224 ± 0.034	0.216 ± 0.1
FLLSFFGLVFFW	0.39 ± 0.029	0.437 ± 0.0046	0.37 ± 0.018	0.446 ± 0.0048	0.397 ± 0.0073	0.374 ± 0.014	0.449 ± 0.024	0.397 ± 0.0048
FLPLFFLPCLSV	0.363 ± 0.0091	0.372 ± 0.031	0.318 ± 0.011	0.431 ± 0.015	0.315 ± 0.011	0.319 ± 0.019	0.413 ± 0.0059	0.361 ± 0.022
FLSPPPFLALLP	0.7 ± 0.03	0.758 ± 0.022	0.675 ± 0.015	0.76275 ± 0.00029	0.691 ± 0.028	0.6908 ± 0.0045	0.717 ± 0.014	0.723 ± 0.023
